Results reported in US8663642B2, “Anti-CD70 antibody-drug conjugates and their use for the treatment and prevention of cancer and immune disorders” (priority 2003, dated 2014).

Experiments:
Caki-1 cells = assay: 3H-TdR proliferation assay, RCC lines; format: cell-based, human; details: Caki-1, 3H-TdR incorporation, 96 hours
Caki-1 tumors = assay: Caki-1 subcutaneous xenograft model of RCC; format: in vivo, nude mice; set-up: average tumor size: dose or concentration left out as unconfirmed
Description: Tumors were initiated in nude mice by implanting tissue tumor blocks (30 mm^3 in size) containing Caki-1 cells. Treatment began when average tumor size within a treatment group was around 100 mm^3. In the upper panel, treatment for the IgG and 1F6 groups began 17 days post implantation (filled arrow), while treatment for the 1F6-vcAFP and IgG-vcAFP groups began 25 days post implantation (open arrow). Indicated doses of either unconjugated mAbs or their ADCs were given for one course on a q4d×4 schedule.
Using xenografts of the Caki-1 line in nude mice, the […] antitumor activity of 1F6-vcAFP was tested. To establish Caki-1 tumors, nude mice were injected subcutaneously with 5×10^6 Caki-1 cells in 0.2 ml PBS. […] Caki-1-containing tumors were excised from tumor bearing mice and tumor tissue blocks of approximately 30 mm^3 were prepared. Naive nude mice to be used for evaluating in vivo antitumor activity of anti-CD70 ADC were each implanted subcutaneously with one tumor block of 30 mm^3. […] Treatment was initiated when the average tumor size within a group was approximately 100 mm^3 (FIG. 12, arrows).

786-O cells = assay: 3H-TdR proliferation assay, RCC lines; format: cell-based, human; details: 3H-TdR incorporation, 96 hours
[1] = test system: CD70^+ hematologic cell lines; assay: 3H-TdR proliferation assay, panel of CD70^+ hematologic lines; format: cell-based, human; details: all the responsive cell lines tested
Description: FIG. 5: Effects of anti-CD70 ADCs on the proliferation of transformed hematologic cell lines. A subset of the CD70^+ cell lines shown in FIG. 4 and the CD70^− Jurkat cell line were tested for their sensitivity toward 1F6 ADCs. Graded doses of the 1F6-vcMMAE, 1F6-vcAFP, or the corresponding non-binding control IgG (IgG) ADCs were added to cells at the initiation of culture. Cells were exposed to the ADCs continuously for a total of 96 hours. Proliferation was determined by pulsing with ^3H-TdR during the last 16 hours of incubation. The upper panels show the response of the WSU-NHL and Jurkat lines. The lower panel summaries the responses by the tested cell lines to 1F6-vcMMAE and 1F6-vcAFP in form of IC50s.
A subset of the CD70^+ hematologic lines listed in FIG. 4 was tested for sensitivity to the 1F6 ADCs. These lines were seeded at 5,000 cells per well in 96-well plates in quadruplicates in a total of 200 μl of culture medium containing graded doses of the ADCs as indicated in the FIG. 5 and the accompanying figure legend. Proliferation assays were carried out for 96 hours. Tritiated thymidine (^3H-TdR) incorporation during the last 16 hours of incubation was used to assess DNA synthesis. The responses of a CD70^+ B lymphoma cell line WSU-NHL and the CD70^− Jurkat cells are shown in the upper panels of FIG. 5. […]

CD70^+ RCC lines = assay: 3H-TdR proliferation assay, panel of RCC lines; format: cell-based, human; details: CD70^+ RCC lines tested
[2] = test system: PBMCs stimulated with irradiated allogeneic CESS cells; assay: Mixed lymphocyte reaction (3H-TdR); format: cell-based, human; details: MLR
activated T cell clones = assay: Proliferation of activated T cell clones (3H-TdR); format: cell-based, human

B1: 1F6-vcAFP: anti-CD70 mAb 1F6 linked to auristatin phenylalanine phenylenediamine by the valine-citrulline (vc) dipeptide linker (conjugate)
VH: QIQLVQSGPEVKKPGETVKISCKASGYTFTNYGMNWVKQAPGKGLKWMGWINTYTGEPTYADAFKGRFAFSLETSASTAYLQINNLKNEDTATYFCARDYGDYGMDYWGQGTSVTVSS
VL: DIVLTQSPASLAVSLGQRATISCRASKSVSTSGYSFMHWYQQKPGQPPKLLIYLASNLESGVPARFSGSGSGTDFTLNIHPVEEEDAATYYCQHSREVPWTFGGGTKLEIKR
modifications: non-natural residues
notes: anti-CD70 mAb 1F6 linked to auristatin phenylalanine phenylenediamine by the valine-citrulline (vc) dipeptide linker
With B1 the “concentration at which maximal proliferation inhibitory effects were achieved” value (Caki-1 cells) was “lower than 0.1 μg/ml”, the average tumor size (Caki-1 tumors; 1, 56 days after treatment initiation) was < 600 mm^3 and the average tumor size (Caki-1 tumors; 3, 70 days after treatment initiation) was “under 200 mm^3”. The “therapeutic activity / tumor growth” value (Caki-1 tumors; Caki-1 xenograft, q4d×4) was “significantly inhibited tumor growth”, the “concentration at which maximal proliferation inhibitory effects were achieved” value (786-O cells) was “lower than 0.1 μg/ml” and the relative inhibitory activity [1] was “more potent inhibitory activity than 1F6-vcMMAE”. The “IC50 values for proliferation inhibition” value (CD70^+ RCC lines) was 2 to 247 ng/mL, the relative activity [2] was “more active than 1F6-vcMMAE” and the “IC50, T cell proliferation” value ([2]; 5-day culture) was “approximately 0.1 μg/ml”. For the same molecule, the “effect on T cell proliferation” value ([2]; 5-day culture) was “substantially inhibited T cell proliferation”, the relative activity (activated T cell clones; T cell clones) was “more active than 1F6-vcVMMAE” and the “IC50, proliferation” value (activated T cell clones; all 3 clones) was “below 0.05 μg/ml”.
